Columns and labels:
Assay in all cases: FACS
[1] = target: miniHA (A/Brisbane/59/2007) (influenza A virus H1N1) (UniProt A8C8J4)
[2] = target: miniHA cluster1 (A/Brisbane/59/2007) (influenza A virus H1N1) (UniProt A8C8J4)
[3] = target: HK68 H3m2-cl9 + 10 + 11 + 12 (influenza A virus H3N2) (UniProt Q91MA7)
[4] = target: HK68 H3m2-cl9 + 10 + 11 + 12-GCN4 (influenza A virus H3N2) (UniProt Q91MA7)
[5] = target: HK68 H3m2-cl9 + 10 + 11 + 12-tri (influenza A virus H3N2) (UniProt Q91MA7)
[6] = target: HK68 H3m2-cl9 + 10 + 12 (influenza A virus H3N2) (UniProt Q91MA7)
[7] = target: H3-mini2-cl9 + 10 + 11 + 12-GCN4 (influenza A virus H3N2) (UniProt O11283)
[8] = target: mini2 cluster11 + 5 (A/Brisbane/59/2007) (influenza A virus H1N1) (UniProt A8C8J4)

Substance	% positive cells [1] [%]	% positive cells [2] [%]	% positive cells [3] [%]	% positive cells [4] [%]	% positive cells [5] [%]	% positive cells [6] [%]	% positive cells [7] [%]	MFI relative to full-length HA [8] [%]	MFI relative to full-length HA [2] [%]
CR6328 (antibody)	1 to 3	60	–	–	–	–	–	–	–
CR8043 (antibody)	–	–	> 15	> 15	> 15	> 15	–	–	–
CR8020 (antibody)	–	–	> 15	> 15	> 15	> 15	60	–	–
CR6254 (antibody)	1 to 3	60	–	–	–	–	–	50	10
